What was measured:
[1] = target: T1, SCYL3 octapeptide GSENSALK
T1 chain: GSENSALK

[2] = target: T2, REP15 octapeptide GQKASQQL
T2 chain: GQKASQQL

[3] = target: T3, ARL2 octapeptide GLLTILKK
T3 chain: GLLTILKK

[4] = target: T4, NDUFB7 octapeptide GAHLVRRY
T4 chain: GAHLVRRY

[5] = target: T5, PSMC1 octapeptide GQSQSGGH
T5 chain: GQSQSGGH

[6] = target: T6, LNP octapeptide GGLFSRWR
T6 chain: GGLFSRWR

[7] = target: T7, MARCKS octapeptide GAQFSKTA
T7 chain: GAQFSKTA

[8] = target: T8, NDUFAF4 octapeptide GALVIRGI
T8 chain: GALVIRGI

[9] = target: T9, FRS2 octapeptide GSCCSCPD
T9 chain: GSCCSCPD

[10] = target: T10, RP2 octapeptide GCFFSKRR
T10 chain: GCFFSKRR

[11] = target: T11, YES1 octapeptide GCIKSKEN
T11 chain: GCIKSKEN

[12] = target: T12, FYN octapeptide GCVQCKDK
T12 chain: GCVQCKDK

[13] = target: T13, NOL3 octapeptide GNAQERPS
T13 chain: GNAQERPS

[14] = target: T14, ZNRF2 octapeptide GAKQSGPA
T14 chain: GAKQSGPA

[15] = target: T15, GNAZ octapeptide GCRQSSEE
T15 chain: GCRQSSEE

[16] = target: T16, ARF6 octapeptide GKVLSKIF
T16 chain: GKVLSKIF

[17] = target: T17, LYN octapeptide GCIKSKGK
T17 chain: GCIKSKGK

[18] = target: T18, DEGS1 octapeptide GSRVSRED
T18 chain: GSRVSRED

[19] = target: T19, ARL6 octapeptide GLLDRLSV
T19 chain: GLLDRLSV

[20] = target: T20, Src8(G2A) mutant octapeptide Ala-Ser-Asn-Lys-Ser-Lys-Pro-Lys
T20 chain: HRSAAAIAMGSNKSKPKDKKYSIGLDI

[21] = target: T21, NAA40 octapeptide GRKSSKAK
T21 chain: GRKSSKAK

[22] = target: T22, MARCKSL1 octapeptide GSQSSKAP
T22 chain: GSQSSKAP

[23] = target: T23, LANCL2 octapeptide GETMSKRL
T23 chain: GETMSKRL

[24] = target: T24, DDX46 octapeptide GRESRHYR
T24 chain: GRESRHYR

[25] = target: T25, RNF11 octapeptide GNCLKSPT
T25 chain: GNCLKSPT

B1: N-myristoyltransferase 1, full length (protein)
chain: MADESETAVKPPAPPLPQMMEGNGNGHEHCSDCENEEDNSYNRGGLSPANDTGAKKKKKKQKKKKEKGSETDSAQDQPVKMNSLPAERIQEIQKAIELFSVGQGPAKTMEEASKRSYQFWDTQPVPKLGEVVNTHGPVEPDKDNIRQEPYTLPQGFTWDALDLGDRGVLKELYTLLNENYVEDDDNMFRFDYSPEFLLWALRPPGWLPQWHCGVRVVSSRKLVGFISAIPANIHIYDTEKKMVEINFLCVHKKLRSKRVAPVLIREITRRVHLEGIFQAVYTAGVVLPKPVGTCRYWHRSLNPRKLIEVKFSHLSRNMTMQRTMKLYRLPETPKTAGLRPMETKDIPVVHQLLTRYLKQFHLTPVMSQEEVEHWFYPQENIIDTFVVENANGEVTDFLSFYTLPSTIMNHPTHKSLKAAYSFYNVHTQTPLLDLMSDALVLAKMKGFDVFNALDLMENKTFLEKLKFGIGDGNLQYYLYNWKCPSMGAEKVGLVLQ
B1 showed a Km [1] of 0.8 µM, a Vmax [1] of 1.7 µM/min and a Km [2] of 15.7 µM. The Vmax [2] was 3.4 µM/min, the Km [3] was 0.4 µM and the Vmax [3] was 1.2 µM/min. The Km [4] was 16.4 µM, the Vmax [4] was 2.8 µM/min and the Km [5] was 40 µM. For the same protein, the Vmax [5] was 9.6 µM/min, the Km [6] was 10.3 µM and the Vmax [6] was 21.9 µM/min. For the same protein, the Km [7] was 38.4 µM, the Vmax [7] was 6.4 µM/min and the Km [8] was 0.5 µM. It also gave a Vmax [8] of 1.2 µM/min, a Km [9] of 28.2 µM and a Vmax [9] of 54.7 µM/min. For the same protein, the Km [10] was 13.6 µM, the Vmax [10] was 60.8 µM/min and the Km [11] was 14.4 µM. The Vmax [11] was 61 µM/min, the Km [12] was 5.2 µM and the Vmax [12] was 54.9 µM/min. For the same protein, the Km [13] was 1.4 µM, the Vmax [13] was 2 µM/min and the Km [14] was 2 µM. For the same protein, the Vmax [14] was 1.6 µM/min, the Km [15] was 15.7 µM and the Vmax [15] was 64.4 µM/min. The Km [16] was 4.4 µM, the Vmax [16] was 13.6 µM/min and the Km [17] was 22.5 µM. For the same protein, the Vmax [17] was 64.7 µM/min, the Km [18] was 79.2 µM and the Vmax [18] was 12.9 µM/min. For the same protein, the Km [19] was < 0.1 µM, the Vmax [19] was 1.8 µM/min and the Km [20] was < 0.1 µM. It also gave a Vmax [20] of 1 µM/min, a Km [21] of 1.2 µM and a Vmax [21] of 1.8 µM/min. The Km [22] was 11.7 µM, the Vmax [22] was 6.6 µM/min and the Km [23] was 13 µM. For the same protein, the Vmax [23] was 5.3 µM/min, the Km [24] was < 0.1 µM and the Vmax [24] was 2 µM/min. It also gave a Km [25] of 16.7 µM and a Vmax [25] of 61.1 µM/min.
